Publication PMC2886353 (The Journal of Cell Biology, 2010)

B1: KIF17 (1-369)-3xmCit (domain or fragment, human, UniProt Q9P2E2-1 1-369, looked up)
chain: MASEAVKVVVRCRPMNQRERELRCQPVVTVDCARAQCCIQNPGAADEPPKQFTFDGAYHVDHVTEQIYNEIAYPLVEGVTEGYNGTIFAYGQTGSGKSFTMQGLPDPPSQRGIIPRAFEHVFESVQCAENTKFLVRASYLEIYNEDVRDLLGADTKQKLELKEHPEKGVYVKGLSMHTVHSVAQCEHIMETGWKNRSVGYTLMNKDSSRSHSIFTISIEMSAVDERGKDHLRAGKLNLVDLAGSERQSKTGATGERLKEATKINLSLSALGNVISALVDGRCKHVPYRDSKLTRLLQDSLGGNTKTLMVACLSPADNNYDETLSTLRYANRAKNIRNKPRINEDPKDALLREYQEEIKKLKAILTQQMS
B2: KIF17 (1-490)-3xmCit (domain or fragment, human, UniProt Q9P2E2-1 1-490, looked up)
chain: MASEAVKVVVRCRPMNQRERELRCQPVVTVDCARAQCCIQNPGAADEPPKQFTFDGAYHVDHVTEQIYNEIAYPLVEGVTEGYNGTIFAYGQTGSGKSFTMQGLPDPPSQRGIIPRAFEHVFESVQCAENTKFLVRASYLEIYNEDVRDLLGADTKQKLELKEHPEKGVYVKGLSMHTVHSVAQCEHIMETGWKNRSVGYTLMNKDSSRSHSIFTISIEMSAVDERGKDHLRAGKLNLVDLAGSERQSKTGATGERLKEATKINLSLSALGNVISALVDGRCKHVPYRDSKLTRLLQDSLGGNTKTLMVACLSPADNNYDETLSTLRYANRAKNIRNKPRINEDPKDALLREYQEEIKKLKAILTQQMSPSSLSALLSRQVPPDPVQVEEKLLPQPVIQHDVEAEKQLIREEYEERLARLKADYKAEQESRARLEEDITAMRNSYDVRLSTLEENLRKETEAVLQVGVLYKAEVMSRAEFASSAEYPPAF
B3: KIF17 (1-795)-3xmCit (domain or fragment, human, UniProt Q9P2E2-1 1-795, looked up)
chain: MASEAVKVVVRCRPMNQRERELRCQPVVTVDCARAQCCIQNPGAADEPPKQFTFDGAYHVDHVTEQIYNEIAYPLVEGVTEGYNGTIFAYGQTGSGKSFTMQGLPDPPSQRGIIPRAFEHVFESVQCAENTKFLVRASYLEIYNEDVRDLLGADTKQKLELKEHPEKGVYVKGLSMHTVHSVAQCEHIMETGWKNRSVGYTLMNKDSSRSHSIFTISIEMSAVDERGKDHLRAGKLNLVDLAGSERQSKTGATGERLKEATKINLSLSALGNVISALVDGRCKHVPYRDSKLTRLLQDSLGGNTKTLMVACLSPADNNYDETLSTLRYANRAKNIRNKPRINEDPKDALLREYQEEIKKLKAILTQQMSPSSLSALLSRQVPPDPVQVEEKLLPQPVIQHDVEAEKQLIREEYEERLARLKADYKAEQESRARLEEDITAMRNSYDVRLSTLEENLRKETEAVLQVGVLYKAEVMSRAEFASSAEYPPAFQYETVVKPKVFSTTDTLPSDDVSKTQVSSRFAELPKVEPSKSEISLGSSESSSLEETSVSEAFPGPEEPSNVEVSMPTEESRSRYFLDECLGQEAAGHLLGEQNYLPQEEPQEVPLQGLLGLQDPFAEVEAKLARLSSTVARTDAPQADVPKVPVQVPAPTDLLEPSDARPEAEAADDFPPRPEVDLASEVALEVVRTAEPGVWLEAQAPVALVAQPEPLPATAGVKRESVGMEVAVLTDDPLPVVDQQQVLARLQLLEQQVVGGEQAKNKDLKEKHKRRKRYADERRKQLVAALQNSDEDSGDW
B4: KIF17 (1-738)-3xmCit (domain or fragment, human, UniProt Q9P2E2-1 1-738, looked up)
chain: MASEAVKVVVRCRPMNQRERELRCQPVVTVDCARAQCCIQNPGAADEPPKQFTFDGAYHVDHVTEQIYNEIAYPLVEGVTEGYNGTIFAYGQTGSGKSFTMQGLPDPPSQRGIIPRAFEHVFESVQCAENTKFLVRASYLEIYNEDVRDLLGADTKQKLELKEHPEKGVYVKGLSMHTVHSVAQCEHIMETGWKNRSVGYTLMNKDSSRSHSIFTISIEMSAVDERGKDHLRAGKLNLVDLAGSERQSKTGATGERLKEATKINLSLSALGNVISALVDGRCKHVPYRDSKLTRLLQDSLGGNTKTLMVACLSPADNNYDETLSTLRYANRAKNIRNKPRINEDPKDALLREYQEEIKKLKAILTQQMSPSSLSALLSRQVPPDPVQVEEKLLPQPVIQHDVEAEKQLIREEYEERLARLKADYKAEQESRARLEEDITAMRNSYDVRLSTLEENLRKETEAVLQVGVLYKAEVMSRAEFASSAEYPPAFQYETVVKPKVFSTTDTLPSDDVSKTQVSSRFAELPKVEPSKSEISLGSSESSSLEETSVSEAFPGPEEPSNVEVSMPTEESRSRYFLDECLGQEAAGHLLGEQNYLPQEEPQEVPLQGLLGLQDPFAEVEAKLARLSSTVARTDAPQADVPKVPVQVPAPTDLLEPSDARPEAEAADDFPPRPEVDLASEVALEVVRTAEPGVWLEAQAPVALVAQPEPLPATAGVKRESVGMEVAVLTDDPLPVVDQ
B5: KIF17 (1-846)-3xmCit (domain or fragment, human, UniProt Q9P2E2-1 1-846, looked up)
chain: MASEAVKVVVRCRPMNQRERELRCQPVVTVDCARAQCCIQNPGAADEPPKQFTFDGAYHVDHVTEQIYNEIAYPLVEGVTEGYNGTIFAYGQTGSGKSFTMQGLPDPPSQRGIIPRAFEHVFESVQCAENTKFLVRASYLEIYNEDVRDLLGADTKQKLELKEHPEKGVYVKGLSMHTVHSVAQCEHIMETGWKNRSVGYTLMNKDSSRSHSIFTISIEMSAVDERGKDHLRAGKLNLVDLAGSERQSKTGATGERLKEATKINLSLSALGNVISALVDGRCKHVPYRDSKLTRLLQDSLGGNTKTLMVACLSPADNNYDETLSTLRYANRAKNIRNKPRINEDPKDALLREYQEEIKKLKAILTQQMSPSSLSALLSRQVPPDPVQVEEKLLPQPVIQHDVEAEKQLIREEYEERLARLKADYKAEQESRARLEEDITAMRNSYDVRLSTLEENLRKETEAVLQVGVLYKAEVMSRAEFASSAEYPPAFQYETVVKPKVFSTTDTLPSDDVSKTQVSSRFAELPKVEPSKSEISLGSSESSSLEETSVSEAFPGPEEPSNVEVSMPTEESRSRYFLDECLGQEAAGHLLGEQNYLPQEEPQEVPLQGLLGLQDPFAEVEAKLARLSSTVARTDAPQADVPKVPVQVPAPTDLLEPSDARPEAEAADDFPPRPEVDLASEVALEVVRTAEPGVWLEAQAPVALVAQPEPLPATAGVKRESVGMEVAVLTDDPLPVVDQQQVLARLQLLEQQVVGGEQAKNKDLKEKHKRRKRYADERRKQLVAALQNSDEDSGDWVLLNVYDSIQEEVRAKSKLLEKMQRKLRAAEVEIKDLQSEFQLEKIDYLAT

Molecular target: the molecule itself
Assay: single-molecule step-wise photobleaching

Protein | stoichiometry N
B1 | 2
B2 | 2
B3 | 2
B4 | 2
B5 | 2
